Reference: publication PMC3660575, “The Intracellular Domain of Sortilin Interacts with Amyloid Precursor Protein and Regulates Its Lysosomal and Lipid Raft Trafficking” (PLoS ONE, 2013)

Molecular target: T1, APP770-YFP (human, UniProt P05067-1 18-770)
T1 construct: human amyloid precursor protein, the isoform named APP770; Plasmid was a gift (Prof. Goldstein, UCSD); the construct is not described further; also called APP-YFP; source: HEK293, transfected (APP770-YFP pcDNA3.1), in lysate or in living cells
T1 sequence (P05067 18-770): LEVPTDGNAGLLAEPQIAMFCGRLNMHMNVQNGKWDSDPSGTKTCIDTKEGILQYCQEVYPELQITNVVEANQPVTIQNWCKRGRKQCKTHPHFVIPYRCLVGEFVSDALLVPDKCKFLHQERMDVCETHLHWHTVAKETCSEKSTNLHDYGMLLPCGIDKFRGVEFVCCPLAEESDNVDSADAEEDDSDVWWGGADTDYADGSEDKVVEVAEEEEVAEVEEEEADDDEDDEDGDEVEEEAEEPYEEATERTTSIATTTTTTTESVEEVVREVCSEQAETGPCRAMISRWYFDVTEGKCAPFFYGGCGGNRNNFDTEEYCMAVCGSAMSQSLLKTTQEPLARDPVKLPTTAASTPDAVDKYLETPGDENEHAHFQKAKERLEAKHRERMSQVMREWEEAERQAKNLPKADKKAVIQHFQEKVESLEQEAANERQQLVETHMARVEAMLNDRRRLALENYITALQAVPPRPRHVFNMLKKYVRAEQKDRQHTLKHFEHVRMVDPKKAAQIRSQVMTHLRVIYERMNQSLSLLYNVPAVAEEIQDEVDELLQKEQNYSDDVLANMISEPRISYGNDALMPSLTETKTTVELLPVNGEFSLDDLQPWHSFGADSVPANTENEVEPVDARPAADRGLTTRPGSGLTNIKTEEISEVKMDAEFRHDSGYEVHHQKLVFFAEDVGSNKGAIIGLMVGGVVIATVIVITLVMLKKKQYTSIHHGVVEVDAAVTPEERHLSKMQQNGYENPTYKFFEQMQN
Assay: FRET or BRET; FRET acceptor bleaching in co-transfected HEK293 cells (YFP and CFP fusions); FRET efficiency from photobleached regions of interest; the negative control's value used as cut-off
Settings: partners not purified

FRET efficiency: 40%
B1: Sort 756-831-CFP (domain or fragment, human, UniProt Q99523-1 756-831, looked up)
chain: SVPIILAIVGLMLVTVVAGVLIVKKYVCGGRFLVHRYSVLQQHAEANGVDGVDALDTASHTNKSGYHDDSDEDLLE
notes: The forward primer adds a start ATG before the stretch; source: HEK293, transfected, in lysate or in living cells; not shown: CFP (vector pECFP-N1), C-terminal, kept
